Results taken from US20080279856A1, “Inhibition of Bradykinin Release” (Novo Nordisk Pharmaceuticals, Inc., priority 1999, published 2008).

What was measured:
[1] = test system: EC monolayers (HUVEC or BAEC); test: Albumin clearance (Evans blue dye-conjugated albumin) across EC monolayers after HBP stimulation; format: cell-based, human, bovine; settings: HBP 75 μg/ml; over a 60 min period
Experimental: Human umbilical vein endothelial cells (HUVEC) are isolated from fresh umbilical cords as described by Jaffe et al., 1973, J. Clin. Invest. 52:2745-2756), and bovine aorta endothelial cells (BAEC) are isolated according to the method of Booyse et al., 1975, Thromb. Diath. Haemmorrh. 24:825-839) with a few modifications. Briefly, the lumen of the umbilical vein or bovine aorta is incubated with a 0.25% collagenase solution for 10 min, and detached endothelial cells washed out with PBS. Harvested cells are pelleted and resuspended in culture medium, seeded in tissue culture flasks and incubated under standard conditions. Medium is changed every 48 h until cultures have reached confluence (3-5 days). […]
Cultured EC are detached by brief (2 min) trypsin-EDTA treatment (0.25% trypsin/0.01% EDTA) and replated onto either 0.2 μm pore size Anopore inorganic membrane or 3.0 μm pore size polycarbonate filters (Tissue Culture inserts, 10 mm; NUNC, Roskilde, Denmark). […] The ECs are grown to confluent monolayers, as assessed by daily microscopic observation and measurement of the electrical resistance across the monolayer.
Evans blue dye-conjugated albumin (EBA) is used as a marker for macromolecular permeability of the EC monolayers. […] In experiments where albumin permeability is analyzed, the culture medium in the upper compartment is exchanged for medium containing EBA. […]

[2] = test system: endothelial cells and fibroblasts; settings: cited from earlier work
rat insulinoma cells = settings: IL-1 induced; cited from earlier work
EC monolayers = test: F-actin distribution in EC (FITC-phalloidin staining); format: cell-based, human, bovine; settings: HBP 75 μg/ml, 15 min
Experimental: For analysis of F-actin distribution in EC in response to stimulation with HBP, confluent EC monolayers grown on Biomatrix coated coverslips are incubated with HBP or vehicle alone at 37° C. for 15 min. The monolayers are washed twice in culture medium and fixed in 3.7% formaldehyde in PBS for 10 min at room temperature. EC are permeabilized with 0.2% Triton® X-100 in PBS (1 min at 4° C.), washed twice and stained for actin filaments with FITC-conjugated phalloidin for 20 min at 37° C. The endothelial cells are again washed three times in PBS and viewed in a laser scanning confocal microscope.

[3] = 125I-BPTI binding to HBP, scintillation proximity assay; parameters: species or system bovine; settings: competition with unlabeled BPTI; read-out: apparent IC50 of 125I-BPTI binding
Experimental: (§1) The relative affinities of HBP and the mutants are determined by performing competition studies with […] of unlabeled BPTI.

125I-BPTI = test: as above; parameters: species or system bovine
Experimental: as §1

HUVEC or BAEC monolayers = test: EC intracellular free Ca2+ (fluo-3/AM, confocal microscopy); format: cell-based, human, bovine; settings: HBP 75 μg/ml
Experimental: The Ca^2+ sensitive fluorescent probe fluo-3/AM is used for determination of changes in EC intracellular free Ca^2+. Confluent HUVEC or BAEC monolayers cultured on Biomatrix I coated filters are incubated with a Fluo-3/AM solution (3 μM in HBSS containing 2% FCS and […] HEPES), added to both the apical and basolateral surface, for 30 min at 37° C. The monolayers are washed three times and incubated with fresh HBSS in the dark for 20 min at room temperature before use to allow complete hydrolysis of the dye ester to its calcium sensitive free acid form. EC are stimulated with HBP added to the apical surface. Changes in EC Ca^2+i in response to HBP stimulation are measured through continuous registration of fluorescence intensity with a laser-scanning confocal imaging system (Insight Plus; Meridian Instruments Inc., Okemon, Mich.).

B1: HBP: Native human heparin-binding protein, mature form with the amino acid sequence SEQ ID NO:1 (protein, listed as Homo sapiens)
chain: IVGGRKARPRQFPFLASIQNQGRHFCGGALIHARFVMTAASCFQSQNPGVSTVVLGAYDLRRRERQSRQTFSISSMSENGYDPQQNLNDLMLLQLDREANLTSSVTILPLPLQNATVEAGTRCQVAGWGSQRSGGRLSRFPRFVNVTVTPEDQCRPNNVCTGVLTRRGGICNGDGGTPLVCEGLAHGVASFSLGPCGRGPDFFTRVALFRDWIDGVLNNPGPGPA
net albumin clearance volume [1]: 20.4 ± 3.4 µL | cell contraction [2]: induce contraction | apoptosis (rat insulinoma cells): rescues rat insulinoma cells from IL-1 induced apoptosis | F-actin content and distribution (EC monolayers): substantial changes in F-actin content and distribution | IC50 [3]: ~7 nM | binding of BPTI (125I-BPTI): binds BPTI | change in EC cytosolic Ca2+ (fluo-3 fluorescence intensity) (HUVEC or BAEC monolayers): rapid increase in fluorescence intensity | time to peak of Ca2+ fluorescence (HUVEC or BAEC monolayers): ≤ 1 min
